Ends that are not written are not given here.
Assays:
Assay in all cases: cell-based or functional assay
[1] = target: T1, mouse GLP-1 receptor (mouse, UniProt O35659 22-463)
T1 sequence (looked up): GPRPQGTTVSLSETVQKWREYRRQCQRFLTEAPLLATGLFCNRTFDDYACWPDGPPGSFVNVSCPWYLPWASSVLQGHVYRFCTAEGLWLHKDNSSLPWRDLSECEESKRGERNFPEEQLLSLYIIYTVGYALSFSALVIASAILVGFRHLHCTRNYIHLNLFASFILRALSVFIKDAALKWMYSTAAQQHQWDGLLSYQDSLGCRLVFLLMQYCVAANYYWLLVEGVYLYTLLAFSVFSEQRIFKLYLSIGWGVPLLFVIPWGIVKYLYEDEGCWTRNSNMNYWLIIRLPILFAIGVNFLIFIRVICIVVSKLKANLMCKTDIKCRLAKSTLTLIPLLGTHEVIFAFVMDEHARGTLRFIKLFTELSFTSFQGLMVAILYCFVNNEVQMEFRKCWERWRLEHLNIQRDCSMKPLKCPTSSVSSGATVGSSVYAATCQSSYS

[2] = target: T2, rat GLP-1 receptor (rat, UniProt P32301 22-463)
T2 sequence (looked up): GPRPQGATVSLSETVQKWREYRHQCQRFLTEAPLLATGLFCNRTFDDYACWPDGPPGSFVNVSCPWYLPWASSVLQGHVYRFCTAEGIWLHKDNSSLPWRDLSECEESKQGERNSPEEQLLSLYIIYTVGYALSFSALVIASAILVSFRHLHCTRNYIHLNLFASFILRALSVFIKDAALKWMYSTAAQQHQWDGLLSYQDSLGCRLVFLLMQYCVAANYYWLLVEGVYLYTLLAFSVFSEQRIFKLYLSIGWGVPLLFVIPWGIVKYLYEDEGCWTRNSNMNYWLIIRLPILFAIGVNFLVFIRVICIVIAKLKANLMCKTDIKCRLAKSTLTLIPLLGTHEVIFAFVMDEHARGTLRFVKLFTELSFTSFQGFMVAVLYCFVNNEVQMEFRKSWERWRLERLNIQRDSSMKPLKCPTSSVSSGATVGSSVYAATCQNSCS

[3] = target: human GLP-1 receptor (human, UniProt P43220 24-463)
[4] = target: T3, mouse GIP receptor (mouse, UniProt Q0P543 19-460)
T3 sequence (looked up): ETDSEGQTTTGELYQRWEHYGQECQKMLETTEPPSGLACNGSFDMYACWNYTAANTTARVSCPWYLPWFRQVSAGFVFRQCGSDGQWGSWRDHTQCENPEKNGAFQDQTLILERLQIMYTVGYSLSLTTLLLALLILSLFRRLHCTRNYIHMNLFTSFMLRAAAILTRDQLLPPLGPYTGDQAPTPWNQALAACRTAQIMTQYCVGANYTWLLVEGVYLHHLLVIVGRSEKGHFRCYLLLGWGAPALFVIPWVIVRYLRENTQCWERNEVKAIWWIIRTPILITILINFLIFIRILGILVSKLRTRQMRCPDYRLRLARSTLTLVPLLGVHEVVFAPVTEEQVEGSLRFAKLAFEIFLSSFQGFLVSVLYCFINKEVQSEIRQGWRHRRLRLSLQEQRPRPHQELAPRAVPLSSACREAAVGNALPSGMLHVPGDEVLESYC

[5] = target: T4, rat GIP receptor (rat, UniProt P43219 19-455)
T4 sequence (looked up): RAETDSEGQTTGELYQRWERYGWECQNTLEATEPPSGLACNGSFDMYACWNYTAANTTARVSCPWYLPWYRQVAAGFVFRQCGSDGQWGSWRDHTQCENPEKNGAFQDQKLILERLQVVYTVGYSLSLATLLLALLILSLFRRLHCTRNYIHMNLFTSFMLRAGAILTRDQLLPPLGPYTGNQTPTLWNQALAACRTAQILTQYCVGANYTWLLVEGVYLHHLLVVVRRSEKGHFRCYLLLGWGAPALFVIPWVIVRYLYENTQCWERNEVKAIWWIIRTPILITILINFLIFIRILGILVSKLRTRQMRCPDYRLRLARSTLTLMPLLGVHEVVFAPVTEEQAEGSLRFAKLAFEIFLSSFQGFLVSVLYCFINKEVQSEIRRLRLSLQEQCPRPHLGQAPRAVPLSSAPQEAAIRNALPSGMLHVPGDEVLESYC

[6] = target: T5, human GIP receptor (human, UniProt P48546 22-466)
T5 sequence (looked up): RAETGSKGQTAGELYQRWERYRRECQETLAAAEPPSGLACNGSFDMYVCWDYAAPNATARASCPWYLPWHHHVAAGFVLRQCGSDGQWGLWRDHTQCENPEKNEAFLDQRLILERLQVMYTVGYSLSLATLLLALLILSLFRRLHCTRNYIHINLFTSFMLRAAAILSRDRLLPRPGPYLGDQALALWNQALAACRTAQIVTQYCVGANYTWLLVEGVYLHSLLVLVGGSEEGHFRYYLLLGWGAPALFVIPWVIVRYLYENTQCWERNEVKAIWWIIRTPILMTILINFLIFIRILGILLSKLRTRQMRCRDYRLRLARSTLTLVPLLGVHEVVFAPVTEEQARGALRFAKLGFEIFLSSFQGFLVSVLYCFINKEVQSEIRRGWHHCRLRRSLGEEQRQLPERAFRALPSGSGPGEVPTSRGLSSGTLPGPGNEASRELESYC

[7] = target: human glucagon receptor (human, UniProt P47871 26-477)

| Binder | cAMP EC50 [1] [nM] | cAMP EC50 [2] [nM] | cAMP EC50 [3] [nM] | cAMP EC50 [4] [nM] | cAMP EC50 [5] [nM] | cAMP EC50 [6] [nM] | cAMP EC50, Batch 2 [3] [nM] | cAMP EC50 [7] [nM] | cAMP EC50, Batch 2 [7] [nM] | cAMP EC50, Batch 2 [6] [nM] | cAMP EC50, Batch 4 [1] [nM] | cAMP EC50, Batch 4 [2] [nM] | cAMP EC50, Batch 4 [3] [nM] | cAMP EC50, Batch 4 [4] [nM] | cAMP EC50, Batch 4 [7] [nM] | cAMP EC50, Batch 4 [5] [nM] | cAMP EC50, Batch 4 [6] [nM] |
| --- | --- | --- | --- | --- | --- | --- | --- | --- | --- | --- | --- | --- | --- | --- | --- | --- | --- |
| IP257 (Fc fusion) SEGTFTSDYSKLLEEEAVRLFIEWLVKGPGGGGGSGGGGSGGGGSGGGGSATHTCPPCPAPEF | 46 | 1.3 | 7.2 | 4300 | 190 | 180 |  |  |  |  |  |  |  |  |  |  |  |
| IP024 (Fc fusion) YSEGTFTSDYSKLLEEEAVRLFIEWLLAGAAAGGSGSTASSGSGSATGGGGAATHTCPPCPAPEF | 1.1 | 0.083 | 0.095 |  | 0.047 | 0.0071 | 0.16 | 17 | 25 | 0.01 |  |  |  |  |  |  |  |
| IP124 (Fc fusion) YSEGTFTSDYSKLLEEEAVRLFIEWLVKGAAAGGSGSTASSGSGSATGGGGAATHTCPPCPAPEF | 0.42 | 0.062 | 0.091 | 130 | 0.31 | 0.009 |  |  |  |  |  |  |  |  |  |  |  |
| IP244 (Fc fusion) YSEGTFTSDVSKLLEEEAVRLFIEWLLAGAPPGGSGSTASSGSGSATGGGGAATHTCPPCPAPEF | 0.79 | 0.066 | 0.18 | 3.6 | 0.17 | 0.042 |  |  |  |  |  |  |  |  |  |  |  |
| IP085 (Fc fusion) YSEGTFTSDYSKLLEEEAVRLFIEWLLAGAPPGGSGSTASSGSGSATGGGGAATHTCPPCPAPEF | 0.95 | 0.1 | 0.15 | 0.72 | 0.15 | 0.0099 |  | 7.1 |  |  | 0.58 | 0.023 | 0.1 | 0.21 | 3.6 | 0.031 | 0.0065 |
| IP235 (Fc fusion, cysteine pairing not given here; also: fused to IgG1-TM Fc) YSEGTFTSDYSKLLEEEAVRLFIEWLVKGPGGGGGSGGGGSATHTCPPCPAPEF | 0.6 | 0.037 | 0.23 | 2600 | 0.65 | 0.021 |  | > 9900 |  |  |  |  |  |  |  |  |  |
| IP236 (Fc fusion, cysteine pairing not given here; also: fused to IgG1-TM Fc) YSEGTFTSDYSKLLEEEAVRLFIEWLVKGPGGGGGSGGGGSGGGGSATHTCPPCPAPEF | 0.3 | 0.024 | 0.15 | 460 | 0.21 | 0.016 |  | > 5500 |  |  |  |  |  |  |  |  |  |
| IP237 (Fc fusion) YSEGTFTSDYSKLLEEEAVRLFIEWLVKGPGGGGGSGGGGSGGGGSGGGGSATHTCPPCPAPEF | 0.29 | 0.023 | 0.095 | 170 | 0.14 | 0.012 |  | > 1800 |  |  |  |  |  |  |  |  |  |
